{"source": "paper PMC2836542", "about": "(International Journal of Biological Sciences, 2010)", "binders": {"B1": {"name": "pRB (natural protein, mouse (endogenous in ψ-CRE), UniProt P13405 1-921, looked up)", "chain": "MPPKAPRRAAAAEPPPPPPPPPREDDPAQDSGPEELPLARLEFEEIEEPEFIALCQKLKVPDHVRERAWLTWEKVSSVDGILEGYIQKKKELWGICIFIAAVDLDEMPFTFTELQKSIETSVYKFFDLLKEIDTSTKVDNAMSRLLKKYNVLCALYSKLERTCELIYLTQPSSALSTEINSMLVLKISWITFLLAKGEVLQMEDDLVISFQLMLCVVDYFIKFSPPALLREPYKTAAIPINGSPRTPRRGQNRSARIAKQLENDTRIIEVLCKEHECNIDEVKNVYFKNFIPFINSLGIVSSNGLPEVESLSKRYEEVYLKNKDLDARLFLDHDKTLQTDPIDSFETERTPRKNNPDEEANVVTPHTPVRTVMNTIQQLMVILNSASDQPSENLISYFNNCTVNPKENILKRVKDVGHIFKEKFANAVGQGCVDIGVQRYKLGVRLYYRVMESMLKSEEERLSIQNFSKLLNDNIFHMSLLACALEVVMATYSRSTLQHLDSGTDLSFPWILNVLNLKAFDFYKVIESFIKVEANLTREMIKHLERCEHRIMESLAWLSDSPLFDLIKQSKDGEGPDNLEPACPLSLPLQGNHTAADMYLSPLRSPKKRTSTTRVNSAANTETQAASAFHTQKPLKSTSLALFYKKVYRLAYLRLNTLCARLLSDHPELEHIIWTLFQHTLQNEYELMRDRHLDQIMMCSMYGICKVKNIDLKFKIIVTAYKDLPHAAQETFKRVLIREEEFDSIIVFYNSVFMQRLKTNILQYASTRPPTLSPIPHIPRSPYKFSSSPLRIPGGNIYISPLKSPYKISEGLPTPTKMTPRSRILVSIGESFGTSEKFQKINQMVCNSDRVLKRSAEGGNPPKPLKKLRFDIEGADEADGSKHLPAESKFQQKLAEMTSTRTRMQKQRMNESKDVSNKEEK"}}, "molecular_target": "E2F-1/Y411A (UniProt Q01094 1-437, Y411A)", "sequence (Q01094 whole entry Y411A)": "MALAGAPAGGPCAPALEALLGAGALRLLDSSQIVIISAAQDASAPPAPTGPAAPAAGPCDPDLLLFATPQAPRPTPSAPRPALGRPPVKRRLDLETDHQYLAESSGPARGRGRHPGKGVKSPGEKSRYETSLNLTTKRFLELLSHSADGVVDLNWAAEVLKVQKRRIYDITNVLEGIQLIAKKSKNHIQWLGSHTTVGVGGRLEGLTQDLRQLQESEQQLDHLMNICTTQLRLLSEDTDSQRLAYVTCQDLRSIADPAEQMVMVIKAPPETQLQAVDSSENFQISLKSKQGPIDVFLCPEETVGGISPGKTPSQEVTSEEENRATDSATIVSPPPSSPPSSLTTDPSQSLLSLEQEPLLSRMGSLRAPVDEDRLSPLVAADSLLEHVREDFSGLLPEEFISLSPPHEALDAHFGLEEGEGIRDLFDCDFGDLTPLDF", "assay": "co-IP"}
{"binder": "B1", "values": [{"measurement": "fold less binding than E2F-1/wt", "result": 5, "unit": "fold less"}]}
